Laboratory results from paper PMC8533965.
Like-named read-outs stand apart in the source and are kept apart here.

Legend:
[1] = biological target: zfVasa (amino acids 227–670), recombinant, GST tag removed (zebrafish)
[2] = biological target: zebrafish Vasa, full length (amino acids 1–715), fused to the Venus N-terminal half (zfVasa-VN) (zebrafish); experiment: split reporter (BiFC, NanoBiT); BiFC with split Venus in living zebrafish embryos: Buc constructs with VC and zfVasa constructs with VN at their C-termini, mRNAs (200 ng/μL) co-injected at the one-cell stage, fluorescence imaged at 3 hpf by confocal microscopy; read-out percent of fluorescent embryos, three independent …
[3] = biological target: zfVasa-HC (helicase core, amino acids 278–715) fused to the Venus N-terminal half (zebrafish); experiment: as above
[4] = biological target: zfVasa RecA-CTD (amino acids 496–623) fused to the Venus N-terminal half (zebrafish); experiment: as above
[5] = biological target: zfVasa eRecA-CTD (extended sequence at the C-terminus of RecA-CTD, amino acids 624–715) fused to the Venus N-terminal half (zebrafish); experiment: as above
[6] = biological target: zfVasa-BBM (amino acids 600–625) fused to the Venus N-terminal half (zebrafish); experiment: as above
[7] = biological target: zebrafish Vasa, full length (amino acids 1–715), fused to the Venus N-terminal half (zfVasa-VN) (zebrafish); experiment: as above; remark: listed apart in the source
[8] = biological target: zebrafish Vasa, full length (amino acids 1–715), fused to the Venus N-terminal half (zfVasa-VN) (zebrafish); experiment: as above; remark: listed apart in the source
[9] = biological target: zfVasa S607A (full length) fused to the Venus N-terminal half (zebrafish); experiment: as above
[10] = biological target: zfVasa S608A (full length) fused to the Venus N-terminal half (zebrafish); experiment: as above

With YPQVTQERQSVLSPSIDELSSRDEMFSTDVEDLEVVPG [Buc-VBM (amino acids 363–400), recombinant, GST tag removed] as the binder, how does the ATPase activity of 5-µM zfVasa with 2.5-mM ATP (NADH-coupled assay, absorption at 340 nm, 25 °C) on addition of 100-µM Buc-VBM, without RNA [1] read?
The ATPase activity of 5-µM zfVasa with 2.5-mM ATP (NADH-coupled assay, absorption at 340 nm, 25 °C) on addition of 100-µM Buc-VBM, without RNA was 2 fold.

B1: Bucky ball, full length (amino acids 1–639), fused to the Venus C-terminal half (Buc-VC) (natural protein)
chain: MEGINNNSQPMGVGQPHHPVNHTRPFFYVQPPSQPYFMYQWPMNPYGHYGFPGPALHFGRPYMAPYQFMQYPGYVIPHAPMQPIDYRRINPHYPSVASYDLRVRHHFQNAGMHRETACSEVQTDPSDSVNKLIDKIESLKACELGSDKGPNNVVSSTPDVVQGEKLTRLNEDSNLEVATKECKEDPVTRPTTYSDSAYDAESSQGRLDECVFSDVLPLDSSSVHEEEEEEEKDVNEEDEPQTVADEICSQNEMSASTTSNVFCSGVQSIADPTECHDLEKLGDEQKQDIPSADAAAVIEPLISLSEDFDLPYQILRLPCNKTTTGLSLEREIDPLVYFDSPSTLLPPQNYLSSIGSAYSYSYYPQVTQERQSVLSPSIDELSSRDEMFSTDVEDLEVVPGHVYVGGGRLAEASDMPVRSRKELPSVDKTCSVCQKTCACCGSTLQDEVGMCKMAEHSHPERDEMSDQDCDYDLEAEVRSNCESPRVSKRKCCSRHALPSCGHHCAKHRHRKLLCEGQESCDLREQARVHPKGECCEEYGALAKADKRIQKGALCRPCIEQQWREGVVSDQENWASCGAKPRSWRQVTGPQDQGRTPLRRSTCKSIHQQRPRSEYNDYDETEFTYCQRGRGSMKKRGSRY
Which results are given for B1?
percent of fluorescent embryos (BiFC) [2]: 77%; percent of fluorescent embryos (BiFC) [3]: 70%; percent of fluorescent embryos (BiFC) [4]: 64%; percent of fluorescent embryos (BiFC) [5]: 14%; percent of fluorescent embryos (BiFC) [6]: 69%; percent of fluorescent embryos (BiFC) [7]: 82%; percent of fluorescent embryos (BiFC) [8]: 79%; percent of fluorescent embryos (BiFC) [9]: 38%; percent of fluorescent embryos (BiFC) [10]: 27%

Which results are given for YPQVTQERQSVLSPSIDELSSRDEMFSTDVEDLEVVPG (domain or fragment) [Buc amino acids 363–400 fused to the Venus C-terminal half]?
percent of fluorescent embryos (BiFC) [7]: 72%; percent of fluorescent embryos (BiFC) [8]: 70%

With YPQVTQERQSVLSPSILELSSRDEMFSTDVEDLEVVPG (domain or fragment) [Buc-VBM (amino acids 363–400) D379L fused to the Venus C-terminal half] as the binder, how does the percent of fluorescent embryos (BiFC) [7] read?
The percent of fluorescent embryos (BiFC) was 38%.

And the percent of fluorescent embryos (BiFC) [8]?
The percent of fluorescent embryos (BiFC) was 36%.

YPQVTQERQSVLSPSIDELSSRDLMFSTDVEDLEVVPG (domain or fragment) [Buc-VBM (amino acids 363–400) E386L fused to the Venus C-terminal half] was tested. Which percent of fluorescent embryos (BiFC) [8] did it give?
The percent of fluorescent embryos (BiFC) was 48%.

How did the percent of fluorescent embryos (BiFC) [8] turn out when YPQVTQERQSVLSPSIDELSSRDEMFATDVEDLEVVPG (domain or fragment) [Buc-VBM (amino acids 363–400) S389A fused to the Venus C-terminal half] was run?
Its percent of fluorescent embryos (BiFC) is 43%.

With YPQVTQERQSVLSPSIDELSSGDEMFSTDVEDLEVVPG (domain or fragment) [Buc-VBM (amino acids 363–400) R384G (non-conserved control) fused to the Venus C-terminal half] as the binder, how does the percent of fluorescent embryos (BiFC) [8] read?
The percent of fluorescent embryos (BiFC) was 63%.

B2: Buc-CTD (amino acids 363–639) fused to the Venus C-terminal half (domain or fragment)
chain: YPQVTQERQSVLSPSIDELSSRDEMFSTDVEDLEVVPGHVYVGGGRLAEASDMPVRSRKELPSVDKTCSVCQKTCACCGSTLQDEVGMCKMAEHSHPERDEMSDQDCDYDLEAEVRSNCESPRVSKRKCCSRHALPSCGHHCAKHRHRKLLCEGQESCDLREQARVHPKGECCEEYGALAKADKRIQKGALCRPCIEQQWREGVVSDQENWASCGAKPRSWRQVTGPQDQGRTPLRRSTCKSIHQQRPRSEYNDYDETEFTYCQRGRGSMKKRGSRY
B2 was tested. Which percent of fluorescent embryos (BiFC) [7] did it give?
The percent of fluorescent embryos (BiFC) was 77%.

SVLSPSIDELSSRDEMFSTDVED (domain or fragment) [Buc amino acids 372–394 (highly conserved sequence, Buc-VBM) fused to the Venus C-terminal half] was tested. Which percent of fluorescent embryos (BiFC) [7] did it give?
The percent of fluorescent embryos (BiFC) was 66%.
